In patent US20100272721A1, “TREATMENT OF CANCER” (Biogen Idec MA Inc., priority 2005, published 2010):

Experiments:
[1] = tested on: mammary epithelial line Eph4; test: 3-D culture model system of the mammary epithelial line Eph4; format: cell-based; details: Eph4 3-D culture
Description: We detect Fn14 protein in human tumor cell lines and in xenograft and primary breast tumor samples. Fn14 expression is detected in the majority of human breast tumors but not in normal breast tissue samples. […] The capacity to promote proliferation, inhibit differentiation and induce invasion is consistent with a role for TWEAK in tumorigenesis.

[2] = tested on: Human pancreatic tumor cells BxPc3, Panc1 and MiaPaCa2; test: cell invasion assay on matrigel-coated membranes in transwell plates; format: cell-based; details: Tweak 50 ng/ml; BxPc-3, Panc-1 and MiaPaCa; measured after 48 hours; FIG. 1
Description: FIG. 1 is a bar graph showing results from an invasion assay of human pancreatic cell lines with and without added Tweak (Tk), and in the presence or absence of an anti-Tweak antibody (p5g9). HGF is a positive control.
To measure the effect of Tweak on pancreatic tumor cell line invasiveness, cell invasion assays were performed. Human pancreatic tumor cells BxPc3, Panc1 and MiaPaCa2 were plated on matrigel-coated membranes in transwell plates. TWEAK was added to the medium, and the number of cells that invade was measured after 48 hours. BSA was used as a negative control and HGF as a positive control in these experiments.

[3] = tested on: Human pancreatic cells (BxPc-3); test: BxPc-3 xenograft pancreatic cancer model; format: in vivo; details: BxPc-3 subcutaneous in nude mice; IP administration started after 2 weeks; versus control antibody (P1.17) or PBS; FIG. 2
Description: FIG. 2 is a graph showing growth of human pancreatic tumor cell line BxPc-3 in a xenograft animal model, with and without anti-Tweak antibody (P2D10) treatment.
Human pancreatic cells (BxPc-3) were injected subcutaneously into nude mice. After 2 weeks, when the tumors were […], the mice (9-10 per group) were treated with an anti-TWEAK antibody (P2D10), a control antibody (P1.17) or PBS, by IP administration.

Molecule | morphogenic phenotype (proliferation, invasiveness, functional differentiation) ([1]; TWEAK treatment) | matrix metalloproteinase MMP-9 expression ([1]; following TWEAK treatment) | invasion of human pancreatic cell lines (number of cells that invade) [2] | tumor size [3]
Tweak: TNF-like weak inducer of apoptosis, a member of the tumor-necrosis factor (TNF) superfamily of cytokines (protein, listed as Homo sapiens) MAARRSQRRRGRRGEPGTALLVPLALGLGLALACLGLLLAVVSLGSRASLSAQEPAQEELVAEEDQDPSELNPQTEESQDPAPFLNRLVRPRRSAPKGRKTRARRAIAAHYEVHPRPGQDGAQAGVDGTVSGWEEARINSSSPLRYNRQIGEFIVTRAGLYYLYCQVHFDEGKAVYLKLDLLVDGVLALRCLEEFSATAASSLGPQLRLCQVSGLLALRPGSSLRIRTLPWAHLKAAPFLTYFGLFQVH | induces a dramatic branching morphogenic phenotype | significantly up-regulated | induced invasion | –
P2D10: exemplary murine anti-Tweak antibody; heavy chain variable domain SEQ ID NO:3, light chain variable domain SEQ ID NO:4 (antibody, listed as Mus musculus, V domains shown) VH: EVQLVESGGGLVRPGGSLKLFCAASGFTFSRYAMSWVRQSPEKRLEWVAEISSGGSYPYYPDTVTGRFTISRDNAKNTLYLEMSSLKSEDTAMYYCARVLYYDYDGDRIEVMDYWGQGTAVIVSS VL: DVVMTQSPLSLSVSLGDQASISCRSSQSLVSSKGNTYLHWYLQKPGQSPKFLIYKVSNRFSGVPDRFSGSGSGTDFTLKISRVAAEDLGVYFCSQSTHFPRTFGGGTTLEIK | – | – | – | statistically significant reduction in tumor size
